Laboratory results as given in publication PMC4070910, “Cathepsin S Signals via PAR2 and Generates a Novel Tethered Ligand Receptor Agonist” (PLoS ONE, 2014).

Assays:
[1] = test system: luciferase-PAR2 and PAR2 mutants; experiment: Western blot for Gaussia luciferase in supernatants; type: cell-based, human; details: luciferase-PAR2, PAR2M1, PAR2M2, PAR2M3; cathepsin S 2 µM
Experimental: HeLa cells were transfected and treated with cathepsin S as described for the luciferase assay. After treatment with cathepsin S, cells were pelleted at 14,000 rpm for 3 minutes. Supernatants (100 µl) were collected and denatured with 1 µl of 10% SDS. Equal volumes of supernatants were prepared in loading buffer, heated at 90°C for 5 minutes, run on NuPAGE Novex Bis-Tris mini gels and transferred to nitrocellulose membranes using standard protocols. The blot was probed with a primary rabbit anti-Gaussia luciferase antibody. HRP-conjugated donkey anti-rabbit antibody was used to identify the relevant bands on the membrane.

[2] = test system: PKC (βII Ser660) phosphorylation in PAR2-transfected HeLa cells; experiment: Western blot for p-PKC (Ser660) in PAR2-transfected HeLa cells; type: cell-based, human; details: 10 minutes, room temperature; SLIGRL 10 µM, SLIGKVDGTS 10 µM, KVDGTS 100 µM, cathepsin S 1 µM
Experimental: HeLa cells were transfected with PAR2 plasmid DNA as described above. Untransfected HeLa cells were plated as a control. Forty-eight hours after transfection, cells were rinsed with PBS three times. Transfected HeLa cells were incubated with either SLIGRL (10 µM), SLIGKVDGTS (10 µM), KVDGTS (100 µM), or cathepsin S (1 µM) at room temperature for 10 minutes. Untransfected HeLa cells were treated with SLIGRL (10 µM) in a similar manner. A subset of transfected HeLa cells remained untreated and served as a negative control. After incubation, cells were harvested, pelleted and lysed by sequential freeze-thaw cycles. Cell lysates were centrifuged at 4°C for 15 minutes. Supernatants were collected and protein concentrations were determined by Bradford assay. Equal amounts of cell lysates were loaded onto NuPAGE Novex Bis-Tris mini gels, electrophoresed and transferred to nitrocellulose membranes using standard protocols. The blot was first probed with rabbit anti-phospho-PKC (βII Ser660) antibody (Cell Signalling Technology, Danvers, MA), and later reprobed with a mouse anti-actin antibody to identify the control actin band at 42 kDa. Primary antibodies were labeled with HRP-conjugated donkey anti-rabbit antibody and HRP-conjugated donkey anti-mouse antibody, respectively, followed by detection of the position of the antigen on the blot.

human PAR2 = experiment: IP1 (IP-One HTRF) assay in PAR2-transfected HeLa cells; type: cell-based; details: 1 hour, 37°C, KVDGTS 100 µM, SLIGRL 10 µM, cathepsin S 1 µM
Experimental: (§1) To determine the effect of PAR2 activation on Gq stimulation, we measured IP1, a downstream metabolite of IP3, using the IP-One HTRF assay from Cis Bio, Medford, MA. HeLa cells were transfected with salmon sperm DNA or PAR2 cDNA as described above, plated in 10 cm culture dishes and incubated at 37°C with 5% CO2. After 24 hours, the cells were trypsinized, counted, plated into 96-well plates at 80,000 cells/well and incubated for another 24 hours. The medium was replaced with a stimulation buffer containing LiCl, per the instructions of the manufacturer. Ligands, including cathepsin S (1 µM), KVDGTS (100 µM) and SLIGRL (10 µM) were added to wells and incubated at 37°C for 1 hour and IP1 levels determined. This assay was performed on multiple wells containing each ligand on three occasions. Error bars represent SEM.

[3] = test system: salmon sperm transfected HeLa cells; experiment: IP1 (IP-One HTRF) assay in salmon sperm DNA-transfected HeLa cells; type: cell-based; details: cathepsin S 1 µM, 1 hour, 37°C
Experimental: as §1

B1: cathepsin S: Recombinant human cathepsin S, cysteine protease, expressed in E.coli, refolded and activated (protein, UniProt P25774 115-331, looked up)
Cathepsin S: LPDSVDWREKGCVTEVKYQGSCGACWAFSAVGALEAQLKLKTGKLVSLSAQNLVDCSTEKYGNKGCNGGFMTTAFQYIIDNKGIDSDASYPYKAMDQKCQYDSKYRAATCSKYTELPYGREDVLKEAVANKGPVSVGVDARHPSFFLYRSGVYYEPSCTQNVNHGVLVVGYGDLNGKEYWLVKNSWGHNFGEEGYIRMARNKGNHCGIASFPSYPEI
B1 was tested. Which “receptor cleavage, anti-luciferase western blot (in words)” value [1] did it give?
The value was “confirmed the results of the luminescence assay”.

What about the “PKC Ser660 phosphorylation (in words)” value [2] of the same molecule?
Its value is “induce PKC Ser660 phosphorylation”.

What about the IP1 level (human PAR2; KVDGTS and SLIGRL after subtracting baseline values, cathepsin S 'in this particular experiment') of the same molecule?
Its IP1 level is 122 nM.

And the “IP1 generation (in words)” value (human PAR2; three occasions)?
Its value is “consistently generated higher levels of IP1 than either SLIGRL or KVDGTS”.

What about the “IP1 level in salmon sperm transfected cells (in words)” value [3] of the same molecule?
The value was “no effect above baseline IP1 levels”.
